Non-standard residues stand in square brackets, D forms with d. No end group written: not given here. *: point of attachment. Desaminotyrosyl = O=C(CCc1ccc(O)cc1)*; NMeY = CN[C@@H](Cc1ccc(O)cc1)C(=O)O; hArg = N=C(N)NCCCC[C@H](N)C(=O)O; Agmatine = N=C(N)NCCCCN*; Nle = CCCC[C@H](N)C(=O)O; Orn = NCCC[C@H](N)C(=O)O; Abu = CC[C@H](N)C(=O)O; GABA = NCCCC(=O)O
T1: GHRH receptor of human pituitary membranes (human, UniProt Q02643)
T1 sequence: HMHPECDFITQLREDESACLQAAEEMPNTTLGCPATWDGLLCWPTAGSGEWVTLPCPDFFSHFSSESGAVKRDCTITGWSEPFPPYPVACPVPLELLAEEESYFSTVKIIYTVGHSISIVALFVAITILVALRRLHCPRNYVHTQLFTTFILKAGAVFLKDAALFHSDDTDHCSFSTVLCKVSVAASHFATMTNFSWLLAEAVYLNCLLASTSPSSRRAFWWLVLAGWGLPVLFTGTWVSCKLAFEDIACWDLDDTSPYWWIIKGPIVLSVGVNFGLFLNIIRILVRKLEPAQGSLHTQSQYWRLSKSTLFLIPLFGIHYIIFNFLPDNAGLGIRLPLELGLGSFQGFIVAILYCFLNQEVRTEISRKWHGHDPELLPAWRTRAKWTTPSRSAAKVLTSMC


Assays:
[1] = biological target: T1, GHRH receptor of human pituitary …; experiment: competition vs 125I-[His1,Nle27]hGHRH(1-32)NH2, human pituitary membranes
Source text: (§1) Normal human pituitaries were purchased from the National Hormone and Peptide Program (A.F. Parlow, Los Angeles, County Harbor-UCLA Medical Center, Torrance, Calif.).

[2] = biological target: T1, GHRH receptor of human pituitary …; experiment: competition vs 125I-JV-1-42, human pituitary membranes
Procedure: The final binding affinities were expressed as IC₅₀ values and were calculated by using the LIGAND PC computerized curve-fitting program of Munson and Rodbard as modified by McPherson.

[3] = biological target: T1, GHRH receptor of human pituitary …; experiment: as above; remark: listed apart in the source
Source text: as §1

[4] = biological target: T1, GHRH receptor of human pituitary …; experiment: competition vs 125I-[His1,Nle27]hGHRH(1-32)NH2, human pituitary membranes; remark: listed apart in the source
Source text: Normal human pituitary was purchased from the National Hormone and Peptide Program (UCLA Medical Center, Torrance, Calif.).

IC50 [1] [nM] | relative affinity (binding potency) vs GHRH [1] | relative affinity (binding potency) vs JI-38 [1] [vs JI-38=1] | IC50 [2] [nM] | relative affinity (binding potency) vs GHRH [2] | relative affinity (binding potency) vs JI-38 [2] [vs JI-38=1] | IC50 [3] [nM] | relative affinity (binding potency) vs JI-38 [3] [vs JI-38=1] | IC50 [4] [nM] | relative affinity (binding potency) compared to JI-38 [4] [vs JI-38=1] | relative affinity (binding potency) compared to hGHRH(1-29) [4] | Binder
0.04 | 148 vs GHRH(1-29)=1 | 48.7 |  |  |  |  |  |  |  |  | [Desaminotyrosyl][dA]DAIFTASYR[Orn]VL[Abu]QLSAR[Orn]LLQDI[Nle]DR[hArg]-NH2 (SMILES CCCC[C@H](NC(=O)[C@@H](NC(=O)[C@H](CC(=O)O)NC(=O)[C@H](CCC(N)=O)NC(=O)[C@H](CC(C)C)NC(=O)[C@H](CC(C)C)NC(=O)[C@H](CCCN)NC(=O)[C@H](CCCNC(=N)N)NC(=O)[C@H](C)NC(=O)[C@H](CO)NC(=O)[C@H](CC(C)C)NC(=O)[C@H](CCC(N)=O)NC(=O)[C@H](CC)NC(=O)[C@H](CC(C)C)NC(=O)[C@@H](NC(=O)[C@H](CCCN)NC(=O)[C@H](CCCNC(=N)N)NC(=O)[C@H](Cc1ccc(O)cc1)NC(=O)[C@H](CO)NC(=O)[C@H](C)NC(=O)[C@@H](NC(=O)[C@H](Cc1ccccc1)NC(=O)[C@@H](NC(=O)[C@H](C)NC(=O)[C@H](CC(=O)O)NC(=O)[C@@H](C)NC(=O)CCc1ccc(O)cc1)[C@@H](C)CC)[C@@H](C)O)C(C)C)[C@@H](C)CC)C(=O)N[C@@H](CC(=O)O)C(=O)N[C@@H](CCCNC(=N)N)C(=O)N[C@@H](CCCCNC(=N)N)C(N)=O) [P-23256 [Dat^1, D-Ala^2, Ala^8, Orn^12, Abu^15, Orn^21, Nle^27, Asp^28, Har^30]hGHRH(1-30)NH2]
 |  |  | 0.07 | 58 vs GHRH(1-29)=1 | 24.4 | 0.33 | 13.2 | 2.16 | 1.27 | 3.54 vs hGHRH(1-29)NH2=1 | YADAIFTNSYRKVLGQLSARKLLQDIMSRQ (Dat^1; D-Ala^2; Fpa5^6; Orn^12; Abu^15; Orn^21; Nle^27; Gab^30 (in place of Gln^30); C-terminal -NH2) [P-25502 [Dat^1, D-Ala^2, Fpa5^6, Orn^12, Abu^15, Orn^21, Nle^27, Gab^30]hGHRH(1-30)NH2]
0.14 | 42.3 vs GHRH(1-29)=1 | 13.9 |  |  |  |  |  |  |  |  | [Desaminotyrosyl][dA]DAIFTNSYR[Orn]VL[Abu]QLSAR[Orn]LLQDI[Nle]DR[hArg]-NH2 (SMILES CCCC[C@H](NC(=O)[C@@H](NC(=O)[C@H](CC(=O)O)NC(=O)[C@H](CCC(N)=O)NC(=O)[C@H](CC(C)C)NC(=O)[C@H](CC(C)C)NC(=O)[C@H](CCCN)NC(=O)[C@H](CCCNC(=N)N)NC(=O)[C@H](C)NC(=O)[C@H](CO)NC(=O)[C@H](CC(C)C)NC(=O)[C@H](CCC(N)=O)NC(=O)[C@H](CC)NC(=O)[C@H](CC(C)C)NC(=O)[C@@H](NC(=O)[C@H](CCCN)NC(=O)[C@H](CCCNC(=N)N)NC(=O)[C@H](Cc1ccc(O)cc1)NC(=O)[C@H](CO)NC(=O)[C@H](CC(N)=O)NC(=O)[C@@H](NC(=O)[C@H](Cc1ccccc1)NC(=O)[C@@H](NC(=O)[C@H](C)NC(=O)[C@H](CC(=O)O)NC(=O)[C@@H](C)NC(=O)CCc1ccc(O)cc1)[C@@H](C)CC)[C@@H](C)O)C(C)C)[C@@H](C)CC)C(=O)N[C@@H](CC(=O)O)C(=O)N[C@@H](CCCNC(=N)N)C(=O)N[C@@H](CCCCNC(=N)N)C(N)=O) [P-23252 [Dat^1-D-Ala^2, Orn^12, Abu^15, Orn^21, Nle^27, Asp^28, Har^30]hGHRH(1-30)NH2]
 |  |  |  |  |  | 1.7 | 2.56 | 1.09 | 2.51 | 7.01 vs hGHRH(1-29)NH2=1 | [NMeY][dA]DAIFTNSYR[Orn]VL[Abu]QLSAR[Orn]LLQDI[Nle]D[Agmatine] [P-20367 [N-Me-Tyr^1, D-Ala^2, Orn^12, Abu^15, Orn^21, Nle^27, Asp^28, Agm^29]hGHRH(1-29)NH2]
 |  |  | 0.05 | 81.2 vs GHRH(1-29)=1 | 34.2 | 0.86 | 5.06 | 3.3 | 0.83 | 2.31 vs hGHRH(1-29)NH2=1 | [Desaminotyrosyl][dA]DAIFTNSYR[Orn]VL[Abu]QLSAR[Orn]LLQDI[Nle]SRQ-{GABA-NH2} (SMILES CCCC[C@H](NC(=O)[C@@H](NC(=O)[C@H](CC(=O)O)NC(=O)[C@H](CCC(N)=O)NC(=O)[C@H](CC(C)C)NC(=O)[C@H](CC(C)C)NC(=O)[C@H](CCCN)NC(=O)[C@H](CCCNC(=N)N)NC(=O)[C@H](C)NC(=O)[C@H](CO)NC(=O)[C@H](CC(C)C)NC(=O)[C@H](CCC(N)=O)NC(=O)[C@H](CC)NC(=O)[C@H](CC(C)C)NC(=O)[C@@H](NC(=O)[C@H](CCCN)NC(=O)[C@H](CCCNC(=N)N)NC(=O)[C@H](Cc1ccc(O)cc1)NC(=O)[C@H](CO)NC(=O)[C@H](CC(N)=O)NC(=O)[C@@H](NC(=O)[C@H](Cc1ccccc1)NC(=O)[C@@H](NC(=O)[C@H](C)NC(=O)[C@H](CC(=O)O)NC(=O)[C@@H](C)NC(=O)CCc1ccc(O)cc1)[C@@H](C)CC)[C@@H](C)O)C(C)C)[C@@H](C)CC)C(=O)N[C@@H](CO)C(=O)N[C@@H](CCCNC(=N)N)C(=O)N[C@@H](CCC(N)=O)C(=O)NCCCC(N)=O) [P-29702 [Dat^1, D-Ala^2, Orn^12, Abu^15, Orn^21, Nle^27, Gln-Gab^30]hGHRH(1-30)NH2]

— patent publication US20180250358A1, “GHRH AGONISTS FOR THE TREATMENT OF ISCHEMIC DISORDERS” (published 2018)
